Legend:
Assay type in all cases: binding
[1] = Probe fluorescence ratio response to arachidonic acid relative to ADIFAB2; conditions: Arachidonic acid; response relative to ADIFAB2
Procedure, shortened: (§1)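 Each fatty acid's response was expressed relative to ADIFAB2, the rI-FABP-L72A probe, as ΔR/ΔRreference. ΔR is the change in the background-corrected two-wavelength intensity ratio R=Fλ1/Fλ2 from its analyte-free baseline R0. Emission was read near about 420-480 nm for unbound and about 495-580 nm for FFA-bound probe.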

[2] = Probe fluorescence ratio response to linoleic acid relative to ADIFAB2; conditions: response relative to ADIFAB2
Procedure, shortened: as §1

[3] = Probe fluorescence ratio response to oleic acid relative to ADIFAB2; conditions: response relative to ADIFAB2
Procedure, shortened: as §1

[4] = Probe fluorescence ratio response to palmitic acid relative to ADIFAB2; conditions: response relative to ADIFAB2
Procedure, shortened: as §1

[5] = Probe fluorescence ratio response to linolenic acid relative to ADIFAB2; conditions: response relative to ADIFAB2
Procedure, shortened: as §1

Molecule | DR/DR AA [1] | DR/DR LA [2] | DR/DR OA [3] | DR/DR PA [4] | DR/DR LNA [5]
51D1, 72A (protein, listed as Rattus norvegicus, PEPTIDE (1)...(131) wild-type rat intestinal fatty acid binding protein) AFDGTWKVDRNENYEKFMEKMGINVVKRKLGAHDNLKLTITQEGNKFTVKDSSNFRNIDVVFELGVDFAYSAADGTELTGTWTMEGNKLVGKFKRVDNGKELIAVREISGNELIQTYTYEGVEAKRIFKKE | 1.34 | 1.38 | 1.28 | 0.68 | 1.39
51F1, 72A (protein, listed as Rattus norvegicus, PEPTIDE (1)...(131) wild-type rat intestinal fatty acid binding protein) AFDGTWKVDRNENYEKFMEKMGINVVKRKLGAHDNLKLTITQEGNKFTVKFSSNFRNIDVVFELGVDFAYSAADGTELTGTWTMEGNKLVGKFKRVDNGKELIAVREISGNELIQTYTYEGVEAKRIFKKE | 1.64 | 1.70 | 1.47 | 0.76 | 1.60
51V3, 72A (protein, listed as Rattus norvegicus, PEPTIDE (1)...(131) wild-type rat intestinal fatty acid binding protein) AFDGTWKVDRNENYEKFMEKMGINVVKRKLGAHDNLKLTITQEGNKFTVKVSSNFRNIDVVFELGVDFAYSAADGTELTGTWTMEGNKLVGKFKRVDNGKELIAVREISGNELIQTYTYEGVEAKRIFKKE | 1.52 | 1.64 | 1.43 | 0.73 | 1.53
51S1, 72A (protein, listed as Rattus norvegicus, PEPTIDE (1)...(131) wild-type rat intestinal fatty acid binding protein) AFDGTWKVDRNENYEKFMEKMGINVVKRKLGAHDNLKLTITQEGNKFTVKSSSNFRNIDVVFELGVDFAYSAADGTELTGTWTMEGNKLVGKFKRVDNGKELIAVREISGNELIQTYTYEGVEAKRIFKKE | 1.64 | 1.78 | 1.61 | 0.80 | 1.66
51L3, 72A (protein, listed as Rattus norvegicus, PEPTIDE (1)...(131) wild-type rat intestinal fatty acid binding protein) AFDGTWKVDRNENYEKFMEKMGINVVKRKLGAHDNLKLTITQEGNKFTVKLSSNFRNIDVVFELGVDFAYSAADGTELTGTWTMEGNKLVGKFKRVDNGKELIAVREISGNELIQTYTYEGVEAKRIFKKE | 1.64 | 1.65 | 1.45 | 0.76 | 1.66
51N1, 72A (protein, listed as Rattus norvegicus, PEPTIDE (1)...(131) wild-type rat intestinal fatty acid binding protein) AFDGTWKVDRNENYEKFMEKMGINVVKRKLGAHDNLKLTITQEGNKFTVKNSSNFRNIDVVFELGVDFAYSAADGTELTGTWTMEGNKLVGKFKRVDNGKELIAVREISGNELIQTYTYEGVEAKRIFKKE | 1.38 | 1.46 | 1.26 | 0.73 | 1.39
51P3, 72A (protein, listed as Rattus norvegicus, PEPTIDE (1)...(131) wild-type rat intestinal fatty acid binding protein) AFDGTWKVDRNENYEKFMEKMGINVVKRKLGAHDNLKLTITQEGNKFTVKPSSNFRNIDVVFELGVDFAYSAADGTELTGTWTMEGNKLVGKFKRVDNGKELIAVREISGNELIQTYTYEGVEAKRIFKKE | 1.42 | 1.42 | 1.21 | 0.72 | 1.48
51Q1, 72A (protein, listed as Rattus norvegicus, PEPTIDE (1)...(131) wild-type rat intestinal fatty acid binding protein) AFDGTWKVDRNENYEKFMEKMGINVVKRKLGAHDNLKLTITQEGNKFTVKQSSNFRNIDVVFELGVDFAYSAADGTELTGTWTMEGNKLVGKFKRVDNGKELIAVREISGNELIQTYTYEGVEAKRIFKKE | 1.56 | 1.63 | 1.43 | 0.73 | 1.65
51K1, 72A (protein, listed as Rattus norvegicus, PEPTIDE (1)...(131) wild-type rat intestinal fatty acid binding protein) AFDGTWKVDRNENYEKFMEKMGINVVKRKLGAHDNLKLTITQEGNKFTVKKSSNFRNIDVVFELGVDFAYSAADGTELTGTWTMEGNKLVGKFKRVDNGKELIAVREISGNELIQTYTYEGVEAKRIFKKE | 1.00 | −0.01 | 1.01 | 0.56 | 1.02
51G1, 72A (protein, listed as Rattus norvegicus, PEPTIDE (1)...(131) wild-type rat intestinal fatty acid binding protein) AFDGTWKVDRNENYEKFMEKMGINVVKRKLGAHDNLKLTITQEGNKFTVKGSSNFRNIDVVFELGVDFAYSAADGTELTGTWTMEGNKLVGKFKRVDNGKELIAVREISGNELIQTYTYEGVEAKRIFKKE | 1.64 | 1.71 | 1.57 | 0.78 | 1.76
51H1, 72A (protein, listed as Rattus norvegicus, PEPTIDE (1)...(131) wild-type rat intestinal fatty acid binding protein) AFDGTWKVDRNENYEKFMEKMGINVVKRKLGAHDNLKLTITQEGNKFTVKHSSNFRNIDVVFELGVDFAYSAADGTELTGTWTMEGNKLVGKFKRVDNGKELIAVREISGNELIQTYTYEGVEAKRIFKKE | 1.52 | 1.64 | 0.58 | 0.81 | 1.58
51W2, 72A (protein, listed as Rattus norvegicus, PEPTIDE (1)...(131) wild-type rat intestinal fatty acid binding protein) AFDGTWKVDRNENYEKFMEKMGINVVKRKLGAHDNLKLTITQEGNKFTVKWSSNFRNIDVVFELGVDFAYSAADGTELTGTWTMEGNKLVGKFKRVDNGKELIAVREISGNELIQTYTYEGVEAKRIFKKE | 1.69 | 1.77 | 1.55 | 0.80 | 1.70
51I1, 72A (protein, listed as Rattus norvegicus, PEPTIDE (1)...(131) wild-type rat intestinal fatty acid binding protein) AFDGTWKVDRNENYEKFMEKMGINVVKRKLGAHDNLKLTITQEGNKFTVKISSNFRNIDVVFELGVDFAYSAADGTELTGTWTMEGNKLVGKFKRVDNGKELIAVREISGNELIQTYTYEGVEAKRIFKKE | 1.50 | 1.55 | 1.41 | 0.72 | 1.62
51R1, 72A (protein, listed as Rattus norvegicus, PEPTIDE (1)...(131) wild-type rat intestinal fatty acid binding protein) AFDGTWKVDRNENYEKFMEKMGINVVKRKLGAHDNLKLTITQEGNKFTVKRSSNFRNIDVVFELGVDFAYSAADGTELTGTWTMEGNKLVGKFKRVDNGKELIAVREISGNELIQTYTYEGVEAKRIFKKE | 1.50 | 1.56 | 1.35 | 0.73 | 1.56
51T3, 72A (protein, listed as Rattus norvegicus, PEPTIDE (1)...(131) wild-type rat intestinal fatty acid binding protein) AFDGTWKVDRNENYEKFMEKMGINVVKRKLGAHDNLKLTITQEGNKFTVKTSSNFRNIDVVFELGVDFAYSAADGTELTGTWTMEGNKLVGKFKRVDNGKELIAVREISGNELIQTYTYEGVEAKRIFKKE | 1.60 | 1.65 | 1.44 | 0.71 | 1.60

From patent US20060257938A1, “Method of screening for drugs that block ligand binding to a lipid binding protein” (priority 2005, published 2006)
